According to US20050260575, “Method for identifying substances useful for treating inflammation using the response element to the ikbalpha ror receptor” (published 2005):

Key:
[1] = biological target: T1, RORα1 (Homo sapiens, UniProt P35398 P35398:1-523); experiment: competition; unlabelled mutated competitor 1x-100x used as specificity control; full oligo sequence not stated, SEQ 15 matches the ACCTCA mutation; conditions: tags: TNT-T7 Promega; hRORα1
T1 sequence: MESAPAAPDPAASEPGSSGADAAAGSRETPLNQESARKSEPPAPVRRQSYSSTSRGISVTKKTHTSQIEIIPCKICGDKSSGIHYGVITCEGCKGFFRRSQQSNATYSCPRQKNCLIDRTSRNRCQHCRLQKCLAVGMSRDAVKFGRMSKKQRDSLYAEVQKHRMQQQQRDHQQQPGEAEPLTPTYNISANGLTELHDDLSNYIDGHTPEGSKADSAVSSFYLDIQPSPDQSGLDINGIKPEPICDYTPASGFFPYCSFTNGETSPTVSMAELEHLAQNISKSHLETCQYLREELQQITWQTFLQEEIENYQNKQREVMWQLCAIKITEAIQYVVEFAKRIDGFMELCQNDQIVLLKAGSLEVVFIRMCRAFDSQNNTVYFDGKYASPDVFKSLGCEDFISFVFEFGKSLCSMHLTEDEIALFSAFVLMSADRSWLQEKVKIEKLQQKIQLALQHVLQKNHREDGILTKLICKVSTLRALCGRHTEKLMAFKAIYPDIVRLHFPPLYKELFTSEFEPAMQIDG
Method: (§1) FIG. 6C depicts the gel shift experiments conducted by using the in vitro translated RORαl protein (TNT-T7 Promega) and an IκBα-RORE labelled probe. […] To […] the mobility of the complex, 1 μl of RORα1 antibody was added to the binding reaction (S: shift of the complex; SS: super-shift of the complex; FP: unbound probe).
(§2) It has been shown that the negative dominant RORαΔ235 missing the LBD domain inhibits RORα1-induced transcription by competing with the same DNA binding domain (Mc Broom, L. D. B., Flock, G. and Giguère, V., Mol. Cell. Biol. 1995, 15: 796-808). The effect of this mutant on the promoter under the control of the IκBα gene RORE inducible by RORα1 was tested. Cotransfection with RORαΔ235 abolished the effect of RORα1 (FIG. 6B). […] Finally, binding of RORα1 to its response element RORE was checked by gel shift assays, using in vitro translated RORα1 protein.

[2] = biological target: T1, RORα1; experiment: EMSA; supershift with RORα1 antibody; native competitor 1x-100x; exact probe length not stated; conditions: tags: TNT-T7 Promega; hRORα1; label: labelled probe
Method: as §1, §2

B1: IκBα-RORE mutant (dsDNA)
DNA 1: GAGCACAATGTACCTCAGATAG
DNA 2: CTATCTGAGGTACATTGTGCTC
binding result [1]: no binding

B2: IκBα-RORE (dsDNA)
DNA 1: GAGCACAATGTAGGTCAGATAG
DNA 2: CTATCTGACCTACATTGTGCTC
binding result [2]: binds
